Reference: US10076576B2, “Minimally toxic prodrugs” (priority 2012, dated 2018)
Like-named read-outs stand apart in the source and are kept apart here.

Assays:
[1] = test system: LS174T colon carcinoma human xenografts; experiment: Efficacy after repeated iv bolus, LS174T xenograft; details: for TGI [% (day)]: day 28
Method: FIG. 2. Efficacy study of PhAc-ALGP-Dox in comparison with free Doxorubicin in NMRI nude mice bearing LS174T colon carcinoma human xenografts. Drugs or controls were administered by the i.v. route on day 0 and day 7. The mice receiving a constant volume (10 μL/g) of either saline (-●-;-◯-) or of the different dosing solutions: PhAc-ALGP-Dox 140 μmolKg (-▴-) and 160 μmol/kg (-×-); Dox 15 μmol/kg (-♦-). Results represent the mean body weight and tumor volume evolution±SEM (n=4).
The anti-tumor activity of doxorubicin and PhAc-ALGP-Dox was tested in models of athymic mice (nude/nude NMRI) carrying ectopic xenografts of human LS-174T colon carcinoma or MX-1 mammary carcinoma.
LS174T and MX-1 tumors were established by a subcutaneous implantation of cells (3×10^6 and 10^7 cells injected respectively) in the right flank of 6 weeks old female NMRI nude mice (Harlan). […] The day of the first injection animals were randomly assigned to groups of 4 animals. […] Compounds were delivered by bolus intravenous injection (i.v.) in the lateral tail vein at 10 μl/g. During the course of the experiment, clinical signs, body weight and tumor volume were controlled twice a week. Results are presented as the evolution of mean tumor volume as a function of time. Optimal T/C (ratio of mean tumor volume of treated versus control mice) values were used as a measure of treatment efficacy.

[2] = Method: FIG. 7. Toxicity study of PhAc-ALGP-Dox after single and multiple intraperitoneal (ip) injections in OF-1 mice. Animals were treated with PhAc-ALGP-Dox with different treatment schedules: at 56 μmol/kg 5× (Q1D5 -*-); at 28 μmol/kg 10× (2Q1D5 -▪-); at 560 μmol/kg 1× (-□-); at 112 μmol/kg 5× (Q1D5 -▴-); at 56 μmol/kg 10× (2Q1D5 -×-).
PhAc-ALGP-Dox was dissolved in saline and administered by single or multiple intraperitoneal (ip) injections […] of OF-1 mice (10 μl/g). PhAc-ALGP-Dox was administered at similar cumulative doses of 280 and 560 μmol/kg following different injections schedules: single ip injection; 5 consecutive daily ip injections at 56 and 112 μmol/kg or twice a day for five consecutive days at the doses of 28 and 56 μmol/kg. The in vivo toxicity was evaluated by monitoring the body weight.

[3] = Pharmacokinetics and heart tissue quantification after single iv bolus
Method: Time evolution of plasma concentration (A, B) and of cardiac tissue concentration (C, D) of Doxorubicin or PhAc-ALGP-Dox and its metabolites after i.v. bolus injection to OF-1 female wild type mice at the dose of 86.2 μmol/kg. Results represent the mean concentration±SD (n=3).
Pharmacokinetic tissue distribution studies were performed using OF-1 mice. […] At different time points after drug administration (5 min, 30 min, 1 h, 4 h, 7 h, 16 h and 24 h) 3 mice per group were sacrificed by cervical dislocation and blood and heart tissue were collected. Hearts were incised and rinsed carefully in phosphate buffer saline (to eliminate blood in the cardiac cavities), dried on paper and frozen in liquid nitrogen. They were stored until analysis. Blood samples were centrifuged (10 min, 2000 g, 4° C.) to separate the plasma fraction, which was stored for analysis. The hearts were homogenized with an Ultraturrax homogenizer in 1.5 mL water. The protein concentration was measured using the microBCA protein assay (Pierce). The drug tissue quantification was made by HPLC after extraction: 150 μL of acetonitrile was added to the 50 μL samples. Samples were vortexed and centrifuged for 10 min at 13 000 rpm at room temperature. Supernatant was collected. Samples were buffered by addition of 200 mM formiate buffer pH 4.5 (1 V sample supernatant+3 V buffer) before HPLC analysis (fluo detection ex=235 nm em=560 nm).

[4] = In vivo toxicity after single iv bolus injection (body weight); set-up: species or system OF-1 mice
Method: FIG. 1. Effect of PhAc-peptide-Dox conjugates on the body weight of OF-1 normal mice (n=4). […] Results represent the mean body weight evolution.
The in vivo toxicity was evaluated by monitoring body weight.

[5] = In vitro cytotoxicity on Cor.At cardiomyocytes (neutral red uptake); format: cell-based, mouse; details: mouse, 20 μg/ml
Method: FIG. 5. In vitro cellular toxicity of PhAc-ALGP-Dox and Doxorubicin on Cor.At® cells (mouse embryonic stem cell derived cardiomyocytes). As non-specific control, the test was also performed on inactivated mouse embryonic fibroblasts (MEF). Cells were cultured for 48 h in the presence of drugs and a neutral red uptake test was performed to determine cell viability. Results represent the cytotoxicity curves. The IC50 values were calculated from the cytotoxicity curves using the Prism GraphPad software 5.0.
The in vitro cardiotoxicity test was carried out in a relevant and predictive in vitro model for cardiac safety screening in early lead optimization using mouse embryonic stem cell derived cardiomyocytes (Cor.At®, Axiogenesis (Germany)). Cor.At® cardiomyocytes provide a standardized, homogenous and reproducible cell system for the in vitro classification of a compound's cardio-cytotoxic potential. After incubation with test compounds, the neutral red uptake test was used to determine effects which directly affect the viability and integrity of cardiac cells when compared to a non-specific reference cell type, e.g. mouse fibroblasts (MEF).

[6] = format: in vivo, CD1 mice
Source text: FIG. 13. Evaluation of chronic cardiotoxicity of PhAc-ALGP-Dox in CD-1 mice. Animals received 10 intravenous injections (arrows) of saline (●); Doxorubicin 6.9 μmol/kg (▪) or of PhAc-ALGP-Dox at 13.8 (▴), 27.6 (×), 55.2 (*) and 82.8 μmol/kg (◯). Results represent the evolution of the average relative body weight (%). †=dead mouse.
Chronic cardiac toxicity of PhAc-ALGP-Dox in mice was morphologically evaluated as previously described by Bertazzoli et al. 1979 (Cancer Treat Rep 63, 1877-1883). CD1 female white mice were treated by bolus intravenous injection in the tail vein at 10 μL/g (6 mice per group). Compounds were injected twice a week, ten times. Animals were not treated for 2 weeks between the first four injections and the last six injections to allow recovery of the bone marrow depression. The treatment dose-levels of PhAc-ALGP-Dox were: 13.8; 27.6; 55.2; and 82.8 μmol/kg. Doxorubicin 6.9 μmol/kg was used as a reference. Three weeks after the last injection, animals were deeply anaesthetized by intraperitoneal injection of nembutal (50 mg/kg) and exsanguinated. The hearts were carefully collected, rinsed in NaCl 9°/oo and fixed in a 10% formaldehyde solution. Samples were processed for histopathological analysis (CITox Lab, France). The heart was trimmed, embedded in paraffin wax, sectioned at a thickness of 4 microns and stained with hematoxylin-eosin before microscopic evaluation. During the course of the experiment, body weight was controlled before each injection or once a week.

[7] = 13.8-82.8 μmol/kg, 10 iv injections

Compound: COc1cccc2c1C(=O)c1c(O)c3c(c(O)c1C2=O)C[C@@](O)(C(=O)CO)C[C@@H]3O[C@H]1C[C@H](N)[C@H](O)[C@H](C)O1 [Doxorubicin, reference compound]
- TGI [% (day)] ([1]; 15 μmol/kg iv day 0 and 7): 55 (28) %
- maximum tolerated dose ([2]; OF-1, mouse, in vivo, ip): 3 µmol/kg
- drug plasma concentration eliminated in the first five minutes ([3]; i.v. bolus 86.2 μmol/kg): About 90%

Compound: COc1cccc2c1C(=O)c1c(O)c3c(c(O)c1C2=O)CC(O)(C(=O)CO)CC3OC1CC(NC(=O)C2CCCN2C(=O)CNC(=O)C(CC(C)C)NC(=O)C(C)NC(=O)CP(=O)(O)O)C(O)C(C)O1 (centres unmarked) [PhAc-ALGP-Dox, PhAc-ALGP-doxorubicin]
- maximum body weight loss ([4]; 240 μmol/kg single iv, day 28): 15%
- body weight loss (in words) ([4]; 320 μmol/kg single iv): significant body weight loss
- mortality ([4]; 320 μmol/kg single iv): one mouse was found dead at day 12
- tolerability (in words) ([4]; 240 and 320 μmol/kg single iv): well tolerated
- MTD ([4]; OF-1, mouse, in vivo, single iv bolus injection, read-out: maximum tolerated dose (MTD)): 240 to 320 µmol/kg
- times less toxic than Dox ([4]; after one intravenous injection): at least 6 times
- body weight loss (maximum) ([1]; 140 μmol/kg and 160 μmol/kg iv, twice): ≤ 10%
- TGI [% (day)] ([1]; 140 μmol/kg iv day 0 and 7): 79 (28) %
- TGI [% (day)] ([1]; 160 μmol/kg iv day 0 and 7): 81 (28) %
- viability at 48 h, 20 µg/mL [5]: 37%
- body weight loss (in words) ([2]; 56 μmol/kg, 10 ip injections (twice a day for five consecutive days)): No body weight loss
- maximum body weight loss ([2]; 112 μmol/kg, five consecutive daily ip injections, day 11): 22.5%
- toxicity (in words) ([2]; 560 μmol/kg single ip injection): very toxic
- body weight lost ([2]; 560 μmol/kg single ip injection, in one week): 25%
- body weight loss (in words) ([2]; cumulative dose 280 μmol/kg ip, whatever the injection schedule): no body weight loss
- times less toxic than doxorubicin ([2]; ip twice a day for five consecutive days): about 15 times
- body weight loss (in words) [6, 7]: No body weight loss
- pathologic microscopic findings in the heart (in words) [6, 7]: did not induce any pathologic microscopic findings in the heart at any dose levels
- Atrophy; myofiber ([6]; mouse, in vivo, iv): 0
- Atrophy; myofiber Grade 1 ([6]; mouse, in vivo, iv): 0
- Atrophy; myofiber Grade 2 ([6]; mouse, in vivo, iv): 0
- Degeneration/necrosis; myocardium ([6]; mouse, in vivo, iv): 0
- Degeneration/necrosis; myocardium Grade 1 ([6]; mouse, in vivo, iv): 0
- Enlarg. Nuclei; myofib. ([6]; mouse, in vivo, iv): 0
- Enlarg. Nuclei; myofib. Grade 1 ([6]; mouse, in vivo, iv): 0
- Infiltration; mix. Cells ([6]; mouse, in vivo, iv): 0
- Infiltration; mix. Cells Grade 1 ([6]; mouse, in vivo, iv): 0
- Thrombus; atrium ([6]; mouse, in vivo, iv): 0
- Thrombus; atrium Grade 1 ([6]; mouse, in vivo, iv): 0
- Vacuolation; myofib. ([6]; mouse, in vivo, iv): 0
- Vacuolation; myofib. Grade 1 ([6]; mouse, in vivo, iv): 0
- Vacuolation; myofib. Grade 2 ([6]; mouse, in vivo, iv): 0
- Dox heart AUC versus Dox administration (times lower) ([3]; equimolar 86.2 μmol/kg iv): 25 times
- plasma AUC of Doxorubicin after Doxorubicin versus after PhAc-ALGP-Dox (times higher) ([3]; equimolar 86.2 μmol/kg iv): 63 times
- drug plasma concentration eliminated in the first five minutes ([3]; i.v. bolus 86.2 μmol/kg): About 90%
- fraction hydrolysed into LGP-Dox, GP-Dox and Dox in plasma ([3]; i.v. bolus 86.2 μmol/kg): Less than 1%
- time after which metabolites were no longer detected in plasma ([3]; i.v. bolus 86.2 μmol/kg): 1 h
- Heart AUC of PhAc-ALGP-Dox ([3]; one i.v. bolus 86.2 μmol/kg): 23 pmol · h/mg protein
